This note sets out measurements from paper PMC8519905, “Reproducibility and accuracy of microscale thermophoresis in the NanoTemper Monolith: a multi laboratory benchmark study” (European Biophysics Journal, 2021).

Values joined by “and” are separate entries in the source; they are usually repeats but may differ in a detail not shown here. Equal values may be shown once.

Test [1] deals with T1, unlabeled lysozyme (Gallus gallus, UniProt P00698).
T1 construct: gene LYZ; native hen egg white lysozyme (mature chain, signal peptide removed), unlabelled; source printed for the stock used for labelling
T1 sequence (P00698 19-147): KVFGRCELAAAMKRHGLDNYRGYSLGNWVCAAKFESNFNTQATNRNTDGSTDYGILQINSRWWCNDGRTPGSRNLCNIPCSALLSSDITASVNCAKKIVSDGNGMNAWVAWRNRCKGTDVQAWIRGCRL
The test can be described thus: label-free microscale thermophoresis (NT.LabelFree). In kind it is binding. Particulars: unlabelled protein; buffer not printed in main text for this test.

In test [2] the target is T2, Lysozyme isolated from hen egg white, labeled with RED-NHS 2nd generation dye (Gallus gallus (hen egg white), UniProt P00698, RED-NHS 2nd generation dye, amine reactive; degree of labeling ~0.70).
T2 construct: lysozyme isolated from hen egg white (ROCHE Cat.No. 10837059001); also called labeled lysozyme; red labeled lysozyme; source: bought: ROCHE Cat.No. 10837059001 (isolated from hen egg white); labeled with the Monolith NT Protein Labeling Kit RED-NHS 2nd Generation
T2 sequence (P00698 19-147): as above
The test can be described thus: other fluorescence titration; analysis of the absolute (initial) fluorescence of the same Monolith datasets; RED-NHS labeled lysozyme as target, nanobody as titrated ligand; PBS+; triplicates on 40 instruments; means over instruments; analysed centrally with MOAA and PALMIST and by 8 of 40 users. The note with it: both partners purified.

Test [3] addresses T2, Lysozyme isolated from hen egg white, …. The test can be described thus: MST; TRIC analysis of the MST/TRIC time trace; RED-NHS labeled lysozyme as target, nanobody as titrated ligand; PBS+ (10 mM phosphate pH 7.4, 2.7 mM KCl, 137 mM NaCl, 0.005% Tween-20); premium coated capillaries; triplicates on 40 Monolith NT.115/NT.Pico instruments; means over instruments; analysed centrally with MOAA and PALMIST (hot region 0.5-1.5 s) and individually by users; fitted without correction for the …. Particulars: both partners purified.

Test [4] shares this target. Described as above. Particulars: both partners purified. This is another data set of the same source.

Consider `CC(=O)N[C@H]1[C@H](O[C@H]2[C@H](O)[C@@H](NC(C)=O)C(O)O[C@@H]2CO)O[C@H](CO)[C@@H](O[C@@H]2O[C@H](CO)[C@@H](O)[C@H](O)[C@H]2NC(C)=O)[C@@H]1O` (stereo partly shown) [NAG3], for which the dissociation constant (Kd) in test [1] was approximately 4000 nM.

B1: anti-lysozyme nanobody: Cab-Lys3 with T101 of the CDR3 loop mutated to serine (VHH)
VHH: DVQLQASGGGSVQAGGSLRLSCAASGYTIGPYCMGWFRQAPGKEREGVAAINMGGGITYYADSVKGRFTISQDNAKNTVYLLMNSLEPEDTAIYYCAADSSIYASYYECGHGLSTGGYGYDSWGQGTQVTVSS
notes: parent chain is the VHH Cab-Lys3 (De Genst et al. 2002), with T101 in the CDR3 loop changed to serine; 14.2 kDa; also called NB; VHH; source: T7-Express E. coli (pET-22B), purified (Profinity IMAC, Superdex-75)
As for B1, the Kd is 256 nM and 259 nM and 272 nM in test [2]; 1170 nM in test [3]; 111 nM and 119 nM and 76 nM in test [4].

Usually Kd stands for the equilibrium constant for the complex coming apart.
